Measurements taken from IntAct's records for PubMed 18625701.

B1: Brefeldin A-inhibited guanine nucleotide-exchange protein 2 (Homo sapiens), Q9Y6D5 (parent)
chain: MQESQTKSMFVSRALEKILADKEVKRPQHSQLRRACQVALDEIKAEIEKQRLGTAAPPKANFIEADKYFLPFELACQSKSPRVVSTSLDCLQKLIAYGHITGNAPDSGAPGKRLIDRIVETICSCFQGPQTDEGVQLQIIKALLTAVTSPHIEIHEGTILQTVRTCYNIYLASKNLINQTTAKATLTQMLNVIFTRMENQVLQEARELEKPIQSKPQSPVIQAAAVSPKFVRLKHSQAQSKPTTPEKTDLTNGEHARSDSGKVSTENGDAPRERGSSLSGTDDGAQEVVKDILEDVVTSAIKEAAEKHGLTEPERVLGELECQECAIPPGVDENSQTNGIADDRQSLSSADNLESDAQGHQVAARFSHVLQKDAFLVFRSLCKLSMKPLGEGPPDPKSHELRSKVVSLQLLLSVLQNAGPVFRTHEMFINAIKQYLCVALSKNGVSSVPDVFELSLAIFLTLLSNFKMHLKMQIEVFFKEIFLNILETSTSSFEHRWMVIQTLTRICADAQCVVDIYVNYDCDLNAANIFERLVNDLSKIAQGRSGHELGMTPLQELSLRKKGLECLVSILKCMVEWSKDLYVNPNHQTSLGQERLTDQEIGDGKGLDMARRCSVTSMESTVSSGTQTTVQDDPEQFEVIKQQKEIIEHGIELFNKKPKRGIQFLQEQGMLGTSVEDIAQFLHQEERLDSTQVGDFLGDSARFNKEVMYAYVDQLDFCEKEFVSALRTFLEGFRLPGEAQKIDRLMEKFAARYIECNQGQTLFASADTAYVLAYSIIMLTTDLHSPQVKNKMTKEQYIKMNRGINDSKDLPEEYLSSIYEEIEGKKIAMKETKELTIATKSTKQNVASEKQRRLLYNLEMEQMAKTAKALMEAVSHAKAPFTSATHLDHVRPMFKLVWTPLLAAYSIGLQNCDDTEVASLCLEGIRCAIRIACIFGMQLERDAYVQALARFSLLTASSSITEMKQKNIDTIKTLITVAHTDGNYLGNSWHEILKCISQLELAQLIGTGVKTRYLSGSGREREGSLKGHTLAGEEFMGLGLGNLVSGGVDKRQMASFQESVGETSSQSVVVAVDRIFTGSTRLDGNAIVDFVRWLCAVSMDELASPHHPRMFSLQKIVEISYYNMNRIRLQWSRIWHVIGDHFNKVGCNPNEDVAIFAVDSLRQLSMKFLEKGELANFRFQKDFLRPFEHIMKKNRSPTIRDMAIRCIAQMVNSQAANIRSGWKNIFAVFHQAASDHDGNIVELAFQTTCHIVTTIFQHHFPAAIDSFQDAVKCLSEFACNAAFPDTSMEAIRLIRFCGKYVSERPRVLQEYTSDDMNVAPGDRVWVRGWFPILFELSCIINRCKLDVRTRGLTVMFEIMKSYGHTFEKHWWQDLFRIVFRIFDNMKLPEQLSEKSEWMTTTCNHALYAICDVFTQFYEALNEVLLSDVFAQLQWCVKQDNEQLARSGTNCLENLVISNGEKFSPEVWDETCNCMLDIFKTTIPHVLLTWRPVGMEEDSSEKHLDVDLDRQSLSSIDKNPSERGQSQLSNPTDDSWKGRPYANQKLFASLLIKCVVQLELIQTIDNIVFYPATSKKEDAEHMVAAQQDTLDADIHIETEDQGMYKYMSSQHLFKLLDCLQESHSFSKAFNSNYEQRTVLWRAGFKGKSKPNLLKQETSSLACCLRILFRMYVDENRRDSWEEIQQRLLTVCSEALAYFITVNSESHREAWTSLLLLLLTKTLKINDEKFKAHASMYYPYLCEIMQFDLIPELRAVLRKFFLRIGVVYKIWIPEEPSQVPAALSPVW

Variants of: B1
Details: with kap3_human PRKAR2B

Variant	effect of a mutation on the interaction
V289W	disrupting interaction
V534W	disrupting interaction
